Data as given in patent publication US20240294622A1.

Legend:
[1] = molecular target: hGREM1 (source and construct not stated) (human) (UniProt O60565); experiment: ELISA on hGREM1
[2] = molecular target: HGREM1-His (ACRO) (human) (UniProt O60565); experiment: ELISA, binding to hGremlin-his
[3] = molecular target: HGREM1-His (ACRO) (human) (UniProt O60565); experiment: competition ELISA, Gremlin-his binding to coated BMP7
[4] = molecular target: HGREM1-His (ACRO) (human) (UniProt O60565); experiment: blocking ELISA, Human Gremlin-1 binding to BMP2; column OD450
[5] = molecular target: HGREM1-His (ACRO) (human) (UniProt O60565); experiment: blocking ELISA, Human Gremlin-1 binding to BMP4; column OD450
[6] = molecular target: HGREM1-His (ACRO) (human) (UniProt O60565); experiment: blocking ELISA, Human Gremlin-1 binding to BMP7; column OD450
[7] = molecular target: HGREM1-His (ACRO) (human) (UniProt O60565); experiment: blocking ELISA, Human Gremlin-1 binding to BMP2; column Percentage
[8] = molecular target: HGREM1-His (ACRO) (human) (UniProt O60565); experiment: blocking ELISA, Human Gremlin-1 binding to BMP4; column Percentage
[9] = molecular target: HGREM1-His (ACRO) (human) (UniProt O60565); experiment: blocking ELISA, Human Gremlin-1 binding to BMP7; column Percentage
[10] = molecular target: HGREM1-His (ACRO) (human) (UniProt O60565); experiment: Fortebio: Gremlin-his loaded (2ug/ml) on the sensor, antibody at 100, 50 and 25 nM
[11] = molecular target: HGREM1-His (ACRO) (human) (UniProt O60565); experiment: Fortebio: Gremlin-his loaded (2ug/ml), antibody at 25 nM; unit from the axis of the sensorgram
[12] = molecular target: HGREM1-His (ACRO) (human) (UniProt O60565); experiment: Fortebio: Gremlin-his loaded (2ug/ml), antibody at 50 nM; unit from the axis of the sensorgram
[13] = molecular target: HGREM1-His (ACRO) (human) (UniProt O60565); experiment: Fortebio: Gremlin-his loaded (2ug/ml), antibody at 100 nM; unit from the axis of the sensorgram
[14] = molecular target: HGREM1-His (ACRO) (human) (UniProt O60565); experiment: ELISA: antibody coated, Gremlin-his titrated, anti-his-HRP; the concentration is that of Gremlin-his
[15] = molecular target: HGREM1-His (ACRO) (human) (UniProt O60565); experiment: Fortebio: Gremlin-his loaded (2ug/ml) on the sensor, antibody at 100, 50 and 25 nM; kdis(1/s)

HGREM1-His (ACRO) (human), sequence (O60565 25-184): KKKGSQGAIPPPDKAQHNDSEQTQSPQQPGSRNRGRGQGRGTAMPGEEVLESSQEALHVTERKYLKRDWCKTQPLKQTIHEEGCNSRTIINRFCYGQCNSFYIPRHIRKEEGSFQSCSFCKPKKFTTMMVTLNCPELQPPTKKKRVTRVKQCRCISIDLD
hGREM1 (source and construct not stated) (human), sequence (O60565 25-184 limits assumed): as the sequence (O60565 25-184) above

B1: benchmark antibody 6245P (antibody, from another filing, V domains shown)
VH: EVQLVESGGGLVQPGGSLRLSCAASGFTFNSFWMSWVRQAPGKGLEWVANIKQDGSEKYYVDSVKGRFTISRDNAKNSVYLQMNSLRAEDTAVYYCARDLVTSFDYWGQGTLVTVSS
VL: DIQMTQSPSSLSASVGDRVTITCQASQDINNYLNWYQQKPGKAPKLLIYDASYLETGVPSGFSGSGSGTDFTFTISSLQPEDIATYYCQQYDSLPYTFGQGTKLEIK
[1]
  EC50: 0.115 µg/mL
[2]
  EC50: 0.0575 µg/mL
[3]
  maximal blocking percentage: < 30%
[4]
  IC50: 0.797 µg/mL
[5]
  IC50: 0.638 µg/mL
[6]
  IC50: 0.536 µg/mL
[7]
  IC50: 0.797 µg/mL
[8]
  IC50: 0.638 µg/mL
[9]
  IC50: 0.536 µg/mL
[10]
  Kd: 2.58 nM
  kon: 338000 M⁻¹ s⁻¹
[11]
  Response: 0.313 nm
[12]
  Response: 0.513 nm
[13]
  Response: 0.649 nm
[14]
  EC50 (read off the curve): 0.01 µg/mL
[15]
  koff: 0.00087 s⁻¹
